Target: HBV表面抗原蛋白 (HBsAg) (Hepatitis B virus)
Test: SPR (Biacore 3000), antibody captured through AHC on a CM5 chip, HBsAg as analyte from 40 nM to 0 nM in 2-fold dilutions

Kd: 6.12 nM
B1: 抗HBsAg单克隆抗体5G7-2 (antibody, V domains shown)
VH: EVQLQQSGPELVKPGASVKIYCKASGYTFTNARSTWVKQSHGKSLEWIGWINFKINNDGSATPFKGKATLTVDKSSSTAYMELRSLTSEDSAVYYCSRAGRFKLMDWGQGTLVTVSA
VL: DIVMTQSPASLAMSLGKRATISCGGCARTPLLWICNGKWYQQKPGQPPKLLIYLASNKFGGVPARFSGSGSGADFTLTIDPVEGDDVALYYCQQDWNTIYTFGGGTKMEIK

From patent CN113150127A
